Assay results from publication PMC4045628 (CellBio, 2014).

How the values were obtained:
[1] = target: HA-tagged kinase-inactive PKC iota (UniProt P41743); assay: co-IP
[2] = target: T1, HA-tagged wild-type PKC iota (UniProt P41743 1-596); assay: co-IP
T1 sequence (looked up): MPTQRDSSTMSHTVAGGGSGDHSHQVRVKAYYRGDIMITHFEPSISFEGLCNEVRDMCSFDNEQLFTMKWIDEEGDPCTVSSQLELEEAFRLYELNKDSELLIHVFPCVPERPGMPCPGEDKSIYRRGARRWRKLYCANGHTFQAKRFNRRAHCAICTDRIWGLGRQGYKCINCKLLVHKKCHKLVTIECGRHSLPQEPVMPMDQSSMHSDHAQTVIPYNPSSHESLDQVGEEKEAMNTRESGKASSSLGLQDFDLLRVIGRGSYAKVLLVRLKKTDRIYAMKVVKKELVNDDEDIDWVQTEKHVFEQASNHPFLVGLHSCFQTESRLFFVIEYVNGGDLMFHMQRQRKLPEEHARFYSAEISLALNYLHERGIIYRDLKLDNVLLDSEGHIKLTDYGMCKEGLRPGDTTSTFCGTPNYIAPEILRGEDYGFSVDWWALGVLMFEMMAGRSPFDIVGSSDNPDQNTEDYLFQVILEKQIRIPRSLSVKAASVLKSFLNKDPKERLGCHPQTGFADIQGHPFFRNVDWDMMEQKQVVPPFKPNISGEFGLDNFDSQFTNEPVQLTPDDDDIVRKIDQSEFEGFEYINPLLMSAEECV

B1: PAR-6B (natural protein, rat (endogenous in PC12), UniProt D4A2F2 1-372, looked up)
chain: MNRGHRHGVSSGCLGTMEVKSKFGAEFRRFSLERSKPGKFEEFYGLLQHVHKIPNVDVLVGYADIHGDLLPINNDDNYHKAVSTANPLLRVFIQKKEEADYSAFGTDTLIRKKNVLSNVLRPDNHRKKPHIVISMPQDFRPVSSIIDVDILPETHRRVRLYKYGTEKPLGFYIRDGSSVRVTPHGLEKVPGIFISRLVPGGLAQSTGLLAVNDEVLEVNGIEVSGKSLDQVTDMMIANSRNLIITVRPANQRNNVVRNSRTSGSSGQSTDNSLLGYPQQAGASLEPEDQDSDEDDIIIEGSGEPQQIPKATPEALSLESLTQIELSFESGQNGFSPLQDTSLVAVPSSLDTESESRAPDQKLLEEDGTIITL
Q: Which fold co-immunoprecipitated relative to PAR-3 [1] does the source give for B1 here?
A: Its fold co-immunoprecipitated relative to PAR-3 is 10 fold.

Q: And the “fold co-immunoprecipitated relative to PAR-3” value [2]?
A: The value was roughly 10 fold.
